For this data set, the system named is mCherry expression in E. coli. Nature of the data set: Bulk mCherry fluorescence of E. coli strains (plate reader, normalized to OD600) after induction with phenolics. Particulars: for improved gene expression in comparison with PemrR: 1 mM coumaric acid; for improved gene expression in comparison with PemrR / fold change in comparison with PemrR / improvement of expression levels in comparison with PemrR: 24 h of induction; for fold change in comparison with PemrR: 5 mM coumaric acid; for improvement of expression levels in comparison with PemrR: 5 mM vanillic acid; for increase in fluorescence / protein expression in comparison with native promoter PemrR (control strain RIF01): induced with 5 mM vanillin, 12 h after induction, 30° C. In kind it is cell-based. How it is done:
Cell growth and bulk fluorescence measurements: For the fluorescence experiments, frozen stocks of the strains were used to inoculate 5 ml of LB medium containing 25 mg l^−1 chloramphenicol and incubated at 37° C. with an orbital shaking of 250 r.p.m. Overnight cultures were used to inoculate (0.1% volume/volume) an M9 salt medium containing 25 mg l^−1 chloramphenicol, 20 g l^−1 glucose, and 5 g l^−1 yeast extract. The M9 salt medium (Sigma-Aldrich) contains 6.78 g l^−1 Na2HPO4, 3 g l^−1 KH2PO4, 0.5 g l^−1 NaCl, 1 g l^−1 NH4Cl, 0.1 mM CaCl2), and 2 mM MgSO4. 200 μl cultures of each strain (in triplicates) were loaded into black 96-well plates (black polystyrene plates with flat pclear bottom from Greiner Bio-One) and covered with Breathe-Easier sealing membrane (Sigma).
The cultures were grown until mid-log phase at 37° C. and 250 rpm. The mid-log phase cells were induced with phenolics such as vanillin, coumaric acid, and vanillic acid at varying concentrations. The induced cells were incubated in a plate reader (Tecan Infinite 200 Pro) at 30° C. and a 3 mm shaking amplitude. The optical density of the cultures and the mCherry fluorescence was monitored at required intervals in the plate reader. Cell density was measured by monitoring the absorption of the cultures at 600 nm (OD600). Fluorescence was recorded using an excitation wavelength of 575±9 nm and an emission wavelength of 610±20 nm with a manual gain of 100 and a Z-position of 20,000 μm. Fluorescence readings are reported as normalized fluorescence given by the ratio of fluorescence of the cells to the OD600. The fold changes were reported as the ratio of fluorescence level of the strain with engineered promoter to the strain with the basal promoter.

For the molecule `COc1cc(C(=O)O)ccc1O` [Vanillic acid, vanillic acid, reference compound], the “induction of the promoters (PemrR, Pvtac, Pvtrc, Pvtic) by the phenolic” value (strains RIF01-RIF04, effect emerged after 24 h) is on record as “some level of induction”.

B1: Pvtac: engineered hybrid phenolic-inducible promoter, PemrR with spacer region of Ptac, SEQ ID NO:53 (nucleic acid)
DNA: GAATCATTTTTCTAAAACAATACATTTGACAATTAATCATCGGCTCGTATAATGATCGGCTGAAATTAATGAGGTCATACCCAAAT
modifications: expressed or natural sequence
As for B1, the “improved gene expression in comparison with PemrR” value is recorded as 10.4 fold, the “fold change in comparison with PemrR” value was found to be 7.1 fold, the “improvement of expression levels in comparison with PemrR” value (“improvement of expression levels” for short) was determined as 9.5 fold and the “increase in fluorescence / protein expression in comparison with native promoter PemrR (control strain RIF01)” value worked out at 4.6 fold.

B2: Pvtic: engineered hybrid phenolic-inducible promoter, PemrR with spacer region of Ptic, SEQ ID NO:55 (nucleic acid)
DNA: GAATCATTTTTCTAAAACAATACATTTGACAATTAATCATCGCGGCTCGTATAATGATCGGCTGAAATTAATGAGGTCATACCCAAAT
modifications: expressed or natural sequence
Regarding B2, the “improvement of expression levels” value was 2.1 fold and the “increase in fluorescence / protein expression in comparison with native promoter PemrR (control strain RIF01)” value stood at 1.5 fold.

B3: Pvtrc: engineered hybrid phenolic-inducible promoter, PemrR with spacer region of Ptrc, SEQ ID NO:54 (nucleic acid)
DNA: GAATCATTTTTCTAAAACAATACATTTGACAATTAATCATCCGGCTCGTATAATGATCGGCTGAAATTAATGAGGTCATACCCAAAT
modifications: expressed or natural sequence
In the case of B3, the “improved gene expression in comparison with PemrR” value was 8.5 fold, the “fold change in comparison with PemrR” value is given as 6.4 fold, the “improvement of expression levels” value was 6.8 fold and the “increase in fluorescence / protein expression in comparison with native promoter PemrR (control strain RIF01)” value is 3.0 fold.

The values above are taken from US11098306B1, “Promoters and uses thereof” (priority 2018, dated 2021).
